Experiments:
[1] = system: rat DRG neurons; assay: Rheobase shift and evoked action potentials in rat DRG neurons (current clamp); format: cell-based
Outline: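 Rat DRG neurons expressing engineered receptors, whole-cell current clamp at RT. ECS at pH 7.3; K-gluconate internal at pH 7.2. 500 ms steps from −200 to 700 pA with and without ligand. Rheobase taken as the smallest depolarising step that fires an action potential; input resistance from negative steps.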

[2] = system: Lenti-X 293T cells; assay: YFP fluorescence quenching anion reporter plate reader assay of engineered receptors stimulated with acetylcholine or a non-native ligand; format: cell-based
Outline: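 Lenti-X 293T cells carrying a YFP anion reporter were transiently transfected with channel DNA and assayed the next day in HEPES-buffered ECS at pH 7.2. Ligand (acetylcholine or non-native ligand) was added in NaI-substituted ECS. Percent quench was the mean of the last 10 s relative to the 15 s pre-addition baseline.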

B1: CODA806: engineered chimeric LGIC receptor, Y115D, L131Q in SEQ ID NO: 33 (protein)
chain: MRCSPGGVWLALAASLLHVSLQGEFQRKLYKELVKNYNPLERPVANDSQPLTVYFSLSLLQIMDVDEKNQVLTTNIWLQMSWTDHYLQWNVSEYPGVKTVRFPDGQIWKPDILLDNSADERFDATFHTNVQVNSSGHCQYLPPGIFKSSCPMDLKNFPMDVQTCKLKFGSWSYGGWSLDLQMQEADISGYIPNGEWDLVGIPGKRSERFYECCKEPYPDVTFTVTMRRRMGYYLIQMYIPSLLIVILSWISFWINMDAAPARVGLGITTVLTMTTQSSGSRASLPKVSYVKAIDIWMAVCLLFVFSALLEYAAVNFVSRQHKELLRFRRKRRHHKSPMLNLFQEDEAGEGRFNFSAYGMGPACLQAKDGISVKGANNSNTTNPPPAPSKSPEEMRKLFIQRAKKIDKISRIGFPMAFLIFNMFYWIIYKIVRREDVHNQ
modifications: synthetic sequence of chimeric LGIC
Rheobase Shift; Rat DRG Neurons, Baseline ([1]; Baseline, no ligand): 163 ± 28 pA
Rheobase Shift; Rat DRG Neurons, Facinicline/RG-3487 @ EC90 ([1]; Facinicline/RG-3487 @ EC90): 625 ± 35 pA
effect on current injection evoked action potentials ([1]; RG-3487 (SA-2) 3 μM, transduced rat DRG neurons): reversibly inhibits
increase in the current required to elicit action potentials (rheobase) ([1]; RG-3487 (SA-2) 3 μM, transduced rat DRG neurons, n=7): ~3 ×
effect on evoked action potentials ([1]; acetylcholine 3.0 mM, transduced rat DRG neurons, n=4): no effect
YFP fluorescence quenching using CNL001 ([2]; 1 nM CNL001, first column): 6.587%
YFP fluorescence quenching using CNL001 ([2]; 1 nM CNL001, second column): −5.179%
YFP fluorescence quenching using TC-5619/Bradanicline ([2]; 1 nM brd): 0.92%
YFP fluorescence quenching using TC-5619/Bradanicline ([2]; 3 nM brd): −4.65%
YFP fluorescence quenching using CNL001 ([2]; 10 nM CNL001, first column): −2.366%
YFP fluorescence quenching using CNL001 ([2]; 10 nM CNL001, second column): −1.272%
YFP fluorescence quenching using TC-5619/Bradanicline ([2]; 10 nM brd): 0.38%
YFP fluorescence quenching using TC-5619/Bradanicline ([2]; 30 nM brd): −8.96%
YFP fluorescence quenching using Facinicline ([2]; 30 nM fac): 41.32
YFP fluorescence quenching using CNL001 ([2]; 50 nM CNL001, first column): 2.763%
YFP fluorescence quenching using CNL001 ([2]; 50 nM CNL001, second column): 1.995%
YFP fluorescence quenching using ABT-126 ([2]; 50 nM abt): −1.81%
YFP fluorescence quenching using CNL001 ([2]; 100 nM CNL001, first column): 3.091%
YFP fluorescence quenching using CNL001 ([2]; 100 nM CNL001, second column): 1.45%
YFP fluorescence quenching using CNL002 ([2]; 100 nM CNL002): −10.03%
YFP fluorescence quenching using ABT-126 ([2]; 100 nM abt): −2.61%
YFP fluorescence quenching using AZD-0328 ([2]; 100 nM azd0328): 12.15%
YFP fluorescence quenching using TC-5619/Bradanicline ([2]; 100 nM brd): 12.18%
YFP fluorescence quenching using Facinicline ([2]; 100 nM fac): 59.51
YFP fluorescence quenching using ABT-126 ([2]; 300 nM abt): −3.78%
YFP fluorescence quenching using AZD-0328 ([2]; 300 nM azd0328): 30.92%
YFP fluorescence quenching using TC-5619/Bradanicline ([2]; 300 nM brd): −0.3%
YFP fluorescence quenching using Facinicline ([2]; 300 nM fac): 74.86
YFP fluorescence quenching using CNL001 ([2]; 1 uM CNL001, first column): 7.331%
YFP fluorescence quenching using CNL001 ([2]; 1 uM CNL001, second column): 9.103%
YFP fluorescence quenching using CNL002 ([2]; 1 uM CNL002): −3.33%
YFP fluorescence quenching using ABT-126 ([2]; 1 uM abt): −2.6%
YFP fluorescence quenching using TC-5619/Bradanicline ([2]; 1 uM brd): 45.47%
YFP fluorescence quenching using TC-6987 ([2]; 1 uM tc6987): 38.83
YFP fluorescence quenching using Facinicline ([2]; 10 uM fac): 78.53
YFP fluorescence quenching using TC-6987 ([2]; 10 uM tc6987): 31.59
YFP fluorescence quenching using CNL002 ([2]; 30 uM CNL002): 6.96%
YFP fluorescence quenching using AZD-0328 ([2]; 30 uM azd0328): 68.65%
YFP fluorescence quenching using Facinicline ([2]; 30 uM fac): 84.45
YFP fluorescence quenching using TC-6987 ([2]; 500 uM tc6987): 29.83
percent quench of YFP fluorescence, 10 uM ach ([2]; acetylcholine 10 uM): 9.47%
percent quench of YFP fluorescence, 100 uM ach ([2]; acetylcholine 100 uM): 6.12%
percent quench of YFP fluorescence, 1 mM ach ([2]; acetylcholine 1 mM): −1.56%
percent quench of YFP fluorescence, 3 mM ach ([2]; acetylcholine 3 mM): 17.57%

Reference: US20240317834A1, “COMPOSITIONS AND METHODS FOR NEUROLOGICAL DISEASES” (CODA BIOTHERAPEUTICS, INC., priority 2020, published 2024)
